Reference: patent US20230140797A1 (published 2023)

T1: human FcγRIIa type R extracellular domain with C-terminal His tag (human, UniProt P12318 34-217)
T1 sequence (looked up): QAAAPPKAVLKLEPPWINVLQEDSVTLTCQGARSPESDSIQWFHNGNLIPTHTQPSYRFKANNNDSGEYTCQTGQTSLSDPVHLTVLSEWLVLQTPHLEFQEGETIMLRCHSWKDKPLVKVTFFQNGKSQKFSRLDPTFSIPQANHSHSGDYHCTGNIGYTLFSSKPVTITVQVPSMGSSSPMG

B1: IL6R-BP183/IL6R-L (antibody, human IgG1, kappa)
heavy: QVQLQESGPGLVKPSETLSLTCAVSGHSISHDHAWSWVRQPPGEGLEWIGFISYSGITNYNPSLQGRVTISRDNSKNTLYLQMNSLRAEDTAVYYCARSLARTTAMDYWGEGTLVTVSSASTKGPSVFPLAPSSKSTSGGTAALGCLVKDYFPEPVTVSWNSGALTSGVHTFPAVLQSSGLYSLSSVVTVPSSSLGTQTYICNVNHKPSNTKVDKKVEPKSCDKTHTCPPCPAPDYLGGDSVFLFPPKPKDTLMISRTPEVTCVVVDVSHEDGEVKFNWYVDGVEVHNAKTKPREEQYNSTYRVVSVLTVLHQDWLNGKEYKCKVSNAALPKPIEKTISKAKGQPREPQVYTLPPSRDELTKNQVSLTCLVKGFYPSDIAVEWESNGQPENNYKTTPPVLDSDGSFFLYSKLTVDKSRWQQGNVFSCSVMHEALHNHYTQESLSLSP
light: not shown
B2: IL6R-BP184/IL6R-L (antibody, human IgG1, kappa)
heavy: QVQLQESGPGLVKPSETLSLTCAVSGHSISHDHAWSWVRQPPGEGLEWIGFISYSGITNYNPSLQGRVTISRDNSKNTLYLQMNSLRAEDTAVYYCARSLARTTAMDYWGEGTLVTVSSASTKGPSVFPLAPSSKSTSGGTAALGCLVKDYFPEPVTVSWNSGALTSGVHTFPAVLQSSGLYSLSSVVTVPSSSLGTQTYICNVNHKPSNTKVDKKVEPKSCDKTHTCPPCPAPDLLGGDSVFLFPPKPKDTLMISRTPEVTCVVVDVSHEDGEVKFNWYVDGVEVHNAKTKPREEQYNSTYRVVSVLTVLHQDWLNGKEYKCKVSNKALPKPIEKTISKAKGQPREPQVYTLPPSRDELTKNQVSLTCLVKGFYPSDIAVEWESNGQPENNYKTTPPVLDSDGSFFLYSKLTVDKSRWQQGNVFSCSVMHEALHNHYTQESLSLSP
light: not shown
B3: IL6R-BP186/IL6R-L (antibody, human IgG1, kappa)
heavy: QVQLQESGPGLVKPSETLSLTCAVSGHSISHDHAWSWVRQPPGEGLEWIGFISYSGITNYNPSLQGRVTISRDNSKNTLYLQMNSLRAEDTAVYYCARSLARTTAMDYWGEGTLVTVSSASTKGPSVFPLAPSSKSTSGGTAALGCLVKDYFPEPVTVSWNSGALTSGVHTFPAVLQSSGLYSLSSVVTVPSSSLGTQTYICNVNHKPSNTKVDKKVEPKSCDKTHTCPPCPAPDYLGDDSVFLFPPKPKDTLMISRTPEVTCVVVDVSHEDGEVKFNWYVDGVEVHNAKTKPREEQDNSTYRVVSVLTVLHQDWLNGKEYKCKVSNAALPKPIEKTISKAKGQPREPQVYTLPPSRDELTKNQVSLTCLVKGFYPSDIAVEWESNGQPENNYKTTPPVLDSDGSFFLYSKLTVDKSRWQQGNVFSCSVMHEALHNHYTQESLSLSP
light: not shown
B4: IL6R-BP213/IL6R-L (antibody, human IgG1, kappa)
heavy: QVQLQESGPGLVKPSETLSLTCAVSGHSISHDHAWSWVRQPPGEGLEWIGFISYSGITNYNPSLQGRVTISRDNSKNTLYLQMNSLRAEDTAVYYCARSLARTTAMDYWGEGTLVTVSSASTKGPSVFPLAPSSKSTSGGTAALGCLVKDYFPEPVTVSWNSGALTSGVHTFPAVLQSSGLYSLSSVVTVPSSSLGTQTYICNVNHKPSNTKVDKKVEPKSCDKTHTCPPCPAPDLLGGDSVFLFPPKPKDTLMISRTPEVTCVVVDVSDEDGEVKFNWYVDGVEVHNAKTKPREEQYNSTYRVVSVLTVLHQDWLNGKEYKCKVSNKALPRPIEKTISKAKGQPREPQVYTLPPSRDELTKNQVSLTCLVKGFYPSDIAVEWESNGQPENNYKTTPPVLDSDGSFFLYSKLTVDKSRWQQGNVFSCSVMHEALHNHYTQESLSLSP
light: not shown

Experiments:
[1] = target: T1, human FcγRIIa type R extracellular …; test: SPR
[2] = target: human FcγRIIIa type V extracellular domain with C-terminal His tag (human, UniProt P08637 17-208); test: SPR
Sequence of human FcγRIIIa type V extracellular domain with C-terminal His tag (P08637 17-208 F176V): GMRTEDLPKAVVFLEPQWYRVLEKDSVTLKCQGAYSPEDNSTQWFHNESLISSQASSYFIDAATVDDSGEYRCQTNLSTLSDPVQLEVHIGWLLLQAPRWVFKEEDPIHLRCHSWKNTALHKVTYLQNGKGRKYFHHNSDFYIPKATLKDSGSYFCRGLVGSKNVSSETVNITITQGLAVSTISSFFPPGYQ

Kd [1] [nM] | Kd [2] [nM] | Binder
2500 | – | B1
– | 68 | B2
950 | – | B3
– | 65000 | B4
